Data set [1] can be described thus: Transmission electron microscopy (TEM). Format: physicochemical. Particulars: for TEM: 2.5 mg/ml peptide stocks; for Appearance on TEM images: magnification 10K. Here is the method: Transmission Electron Microscopy (TEM)
TEM images were collected using a Jeol 1200 EX transmission electron microscope (Jeol Ltd., Tokyo, Japan) at an excitation voltage of 80 kV. For each sample, the formvar and carbon-coated side of a 100-mesh copper or nickel grid was positioned on a 5 μl drop of protein solution for 5 minutes. Afterwards, it was positioned on a 100 μl drop of PBS for 2 minutes, followed by three 2-minute incubations with a 100 μl drop of distilled water. The grids were then stained for 2 minutes with a 100 μl drop of 2% (m/v) methylcellulose with 0.4% uranyl acetate pH 4. Excess fluid was removed by streaking the side of the grids over filter paper, and the grids were subsequently dried under a lamp. Samples were analysed at a magnification of 10K.

Data set [2] concerns the target T1, human BiP (Homo sapiens, UniProt P11021).
T1 construct: The human BiP gene except the signal peptide encoding region was obtained from Geneart (Germany); linker […]; made in house; host or cells: HEK 293E cells, transient transfection, PABC674 vector; secreted into the medium
Kind of data set: ELISA: binding of BiP-FLAG-His to immobilized (misfolded) protein ligands. Particulars: ligands coated at 5 μg/ml; 6BB peptides and oxLDL 50 μg/ml. Put shortly: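 Ligands were coated at 5 μg/ml (50 μg/ml for 6BB# peptides and oxLDL) in 50 mM NaHCO3 pH 9.6, blocked, then incubated in triplicate with BiP-FLAG-His dilution series for 1 h at room temperature. Bound BiP was detected with peroxidase anti-FLAG M2 and TMB, stopped after 5 min and read at 450 nm. Buffer-only and chaperone-omitted background signals were subtracted.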
On the technique in general: ELISA stands for enzyme-linked immunosorbent assay.

Data set [3] has as its target T2, Escherichia coli HSP70 family member DnaK (Escherichia coli, UniProt P0A6Y8).
T2 construct: purchased Stressgen (Ann Arbor, Mich., USA) SPP-630
Kind of data set: ELISA: binding of DnaK to immobilized (misfolded) protein ligands. The method, then: Recombinant Escherichia coli (E. coli) DnaK was purchased from Stressgen (Ann Arbor, Mich., USA; SPP-630). For the binding studies first lot B502468 (100 μg, lot A) and then lot 05240609 (200 μg, lot B) was used.
Binding of chaperones to immobilized (misfolded) protein ligands was determined using an enzyme linked immuno sorbent assay (ELISA) approach. For this purpose 50 μl/well of potential ligands at indicated concentrations or coat buffer only for control and background measurement purposes, were coated overnight at 4° C. or coated for 1 h at room temperature, with motion, in 50 mM NaHCO3 pH 9.6 (coat buffer). In general, ligands were coated at 5 μg/ml, unless stated otherwise. For example, BiP binding peptides 6BB# and oxLDL were coated at 50 μg/ml. Native haemoglobin (Sigma-Aldrich, H7379), albumin, IgIV Gammagard and ovalbumin controls were prepared from lyophilized stocks. The controls were prepared by dissolving lyophilized proteins at 1 mg/ml in PBS upon resuspending by pipetting, followed by a 30 minutes period at the roller device, at room temperature. The protein solutions were centrifuged for 10 minutes at 16,000*g and diluted in coat buffer. After coating the plates were washed at least three times with 50 mM Tris-HCl pH 7.3, 150 mM NaCl, 0.1% v/v Tween20, and blocked with Blocking reagent (Roche Diagnostics, Almere, The Netherlands; 11112589001), for 1 h at room temperature, with motion. Plates were washed three times and incubated in triplicate with indicated chaperone dilution series, at 50 μl/well, for 1 h at room temperature, with constant motion. For HSP90, 5 mM DTT is incorporated in the binding buffer (PBS/0.1% Tween20) to avoid unwanted disulfide bond formation of the HSP90. Plates were washed three times and incubated with anti-FLAG antibody (mouse antibody, M2, peroxidase conjugate; Sigma, A-8592) for BiP-FLAG-His, anti-His-tag antibody (Mouse Monoclonal Antibody, Cat. No. 70796, Novagen [0.2 mg/ml]) for HSP60, a 1:1 mix of 500-fold diluted anti-HSP90beta antibodies (Stressgen, SPA-643 [mouse monoclonal IgM], SPA-646 [rabbit polyclonal]) for HSP90 and an anti-DnaK antibody (Stressgen, 023SPA-880D [mouse monoclonal antibody]) for DnaK. After four wash cycles, secondary antibodies were added to the wells when required, 50 μl/well, for 45′ at room temperature, with motion. RAMPO and SWARPO were used at 3000 times dilution. […] In a second experiment with more immobilized misfolded proteins and controls, the detection of bound HSP90 with the mix of two anti-HSP90 antibodies was achieved by mixing 1:1500 SWARPO with 1:3000 RAMPO. After 5 washes with wash buffer followed by two washes with PBS, binding of antibodies was assessed. Bound anti-FLAG-PO, peroxidase-conjugated rabbit anti-mouse immunoglobulins (RAMPO, P0260, DAKOCytomation, Glostrup, Denmark) or peroxidase-coupled swine anti-rabbit immunoglobulins (SWARPO, P0217, DAKOCytomation) was visualized with tetramethylbenzidine (TMB, #45.01.20,/#45.014.01, Biosource, Nivelles, Belgium). The reaction was stopped after 5 minutes with 1% H2SO4 in H2O. Plates were read at 450 nm. Triplicates were averaged and standard deviations calculated. Background signals obtained with buffer-coated wells were subtracted (binding of primary antibody to empty wells), as well as background signals obtained with ligand-coated wells in which the chaperones were omitted (binding of primary and secondary antibody to coated ligands). Subsequently, sub-optimal concentrations of chaperones for binding to misfolded protein ligands are determined, and these concentrations are used for inhibition studies. […] We have previously identified that a sub-fraction of IgIV molecules has affinity for misfolded proteins comprising crossbeta structure (pending patent application). Moreover, we identified that the sub-fraction of IgIV molecules directly binds to crossbeta structure and/or crossbeta structure induced conformation (not shown; pending patent application). […]

Data set [4] concerns the target T1, human BiP. Kind of data set: ELISA: inhibition of BiP binding to crossbeta structure with tPA. Particulars: threefold diluted supernatant; 10 mM ε-amino caproic acid; no competitor. The source says: The threefold diluted cell supernatants were applied to the ELISA plate in duplicates and BiP binding was subsequently measured as described above. Coat efficiency was checked with specific anti-AGE antibody, anti-albumin antibody and anti-Hb antibody.

T2 sequence (P0A6Y8 whole entry): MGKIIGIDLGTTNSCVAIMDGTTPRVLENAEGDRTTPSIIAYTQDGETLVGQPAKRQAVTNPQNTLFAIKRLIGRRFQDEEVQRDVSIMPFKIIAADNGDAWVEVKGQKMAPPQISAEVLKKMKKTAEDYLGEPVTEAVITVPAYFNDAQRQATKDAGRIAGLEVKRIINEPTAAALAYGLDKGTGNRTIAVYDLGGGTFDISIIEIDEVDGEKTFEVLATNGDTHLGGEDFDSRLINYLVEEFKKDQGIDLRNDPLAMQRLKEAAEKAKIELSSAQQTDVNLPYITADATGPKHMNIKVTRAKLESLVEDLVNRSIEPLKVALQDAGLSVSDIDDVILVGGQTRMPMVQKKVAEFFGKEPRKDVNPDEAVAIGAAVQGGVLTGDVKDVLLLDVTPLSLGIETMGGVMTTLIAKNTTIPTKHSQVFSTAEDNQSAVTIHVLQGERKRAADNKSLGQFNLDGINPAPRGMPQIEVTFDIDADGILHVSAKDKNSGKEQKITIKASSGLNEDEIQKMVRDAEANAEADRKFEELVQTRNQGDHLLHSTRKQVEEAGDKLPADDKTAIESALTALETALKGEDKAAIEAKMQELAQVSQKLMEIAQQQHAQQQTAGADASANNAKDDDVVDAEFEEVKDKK
T1 sequence (P11021 19-654): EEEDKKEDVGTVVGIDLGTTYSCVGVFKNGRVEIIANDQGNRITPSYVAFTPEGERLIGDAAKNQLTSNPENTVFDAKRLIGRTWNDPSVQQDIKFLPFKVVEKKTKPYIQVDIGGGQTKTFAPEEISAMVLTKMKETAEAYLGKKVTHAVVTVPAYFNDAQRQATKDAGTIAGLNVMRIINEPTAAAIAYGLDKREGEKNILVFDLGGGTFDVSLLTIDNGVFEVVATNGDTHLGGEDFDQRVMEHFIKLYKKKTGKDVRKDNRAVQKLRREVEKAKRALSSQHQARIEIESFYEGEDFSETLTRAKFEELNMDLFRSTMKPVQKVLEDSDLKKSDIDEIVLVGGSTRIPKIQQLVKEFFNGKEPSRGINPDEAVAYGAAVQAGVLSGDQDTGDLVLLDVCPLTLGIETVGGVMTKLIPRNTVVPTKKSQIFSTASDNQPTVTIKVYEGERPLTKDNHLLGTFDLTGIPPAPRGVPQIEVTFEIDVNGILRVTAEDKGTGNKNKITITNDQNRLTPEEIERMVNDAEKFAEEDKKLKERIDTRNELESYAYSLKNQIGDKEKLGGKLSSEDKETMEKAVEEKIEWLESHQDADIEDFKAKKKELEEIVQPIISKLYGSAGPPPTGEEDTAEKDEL

Consider AGEYYAAL [6BB7], for which the TEM result in data set [1] is reported as “Very few small”. Moreover, the “Binding of concentration series of BiP to coated ligand” value (“Binding of concentration series of BiP” below) in data set [2] was “did not bind”. Further, the “Binding of concentration series of DnaK to coated ligand” value (“Binding of concentration series of DnaK” below) in data set [3] is recorded as “No binding”.
On to BSA-AGE, for which the “Binding of BiP to coated ligand” value in data set [4] is “binds”. Moreover, the “Appearance on TEM images” value in data set [1] is reported as “non-fibrillar amorphous aggregates”. For the same substance, in data set [2], the “Binding of concentration series of BiP” value is “has been established”. For the same substance, the “Binding of concentration series of DnaK” value in data set [3] is “has been established”.
In the case of GSNKGAIIGLM [6BB6, Human Aβ (25-35)], the TEM entry in data set [1] was “Thin aggregated”. The “Binding of concentration series of BiP” value in data set [2] is reported as “has been established”. In addition, the “Binding of concentration series of DnaK” value in data set [3] is recorded as “has been established”.
In the case of “Hb: non-modified human haemoglobin control”, the “Binding of BiP to coated ligand” value in data set [4] is recorded as “some binding”. For the same substance, the “Binding of concentration series of BiP” value in data set [2] is on record as “did not bind”. Besides, the “Binding of concentration series of DnaK” value in data set [3] was “Low binding”.
“HbAGE: human haemoglobin glycated with glucose-6-phosphate for 75 weeks”: the “Appearance on TEM images” value in data set [1] is reported as “non-fibrillar amorphous aggregates”. Besides, the “Binding of concentration series of BiP” value in data set [2] is “has been established”. The “Binding of concentration series of DnaK” value in data set [3] was “has been established”.
As for KLVFFAE [6BB12, Human Aβ16-22], the TEM result in data set [1] is listed as “Large dense clusters”. For the same substance, in data set [2], the “Binding of concentration series of BiP” value was “no BiP binding was observed”. Besides, in data set [3], the “Binding of concentration series of DnaK” value was “did not bind”.
Turning to “native BSA: non-modified bovine serum albumin control”, the “Binding of BiP to coated ligand” value in data set [4] was “hardly”. For the same substance, the “Binding of concentration series of BiP” value in data set [2] is listed as “did not bind”. The “Binding of concentration series of DnaK” value in data set [3] was “No binding”.

These data come from patent publication US20100015126A1, “Methods of Binding of Cross-Beta Structures By Chaperones” (priority 2006, published 2010).
